Laboratory results from patent US10640563B2, “Anti-B7-H3 antibodies and antibody drug conjugates” (AbbVie Inc., priority 2016, dated 2020).
Residue numbers refer to the chain shown, from its start.

T1: soluble ECD of human B7-H3 (Homo sapiens, UniProt Q5ZPR3)
T1 construct: His tag (6xHis) (C); made in house
T1 sequence (Q5ZPR3 with tags, fused parts or gaps): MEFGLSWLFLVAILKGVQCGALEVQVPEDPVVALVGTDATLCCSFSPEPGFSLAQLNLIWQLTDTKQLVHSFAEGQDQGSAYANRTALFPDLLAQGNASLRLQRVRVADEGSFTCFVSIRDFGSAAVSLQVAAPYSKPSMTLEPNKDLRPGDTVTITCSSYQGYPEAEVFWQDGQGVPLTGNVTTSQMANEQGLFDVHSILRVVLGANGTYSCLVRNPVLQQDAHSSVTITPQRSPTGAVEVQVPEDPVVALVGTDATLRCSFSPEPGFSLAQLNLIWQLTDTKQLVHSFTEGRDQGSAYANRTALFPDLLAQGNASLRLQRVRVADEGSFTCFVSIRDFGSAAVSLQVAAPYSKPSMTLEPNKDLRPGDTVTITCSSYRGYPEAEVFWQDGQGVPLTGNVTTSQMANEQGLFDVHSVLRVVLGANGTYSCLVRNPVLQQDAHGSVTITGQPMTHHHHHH

B1: Ab17 (antibody, V domains shown)
VH: EVKLVESGGGLVQPGGSLKLSCAASGFTFSSYIMSWVRQTPEKRLEWVASIVSSNITYYPDSMKGRFTISRDNARNILYLQMSSLKSEDTAMYYCARSGTRAWFAYWGQGTLVTVSA
VL: DIVLTQSPASLAVSLGQRATISCRASKSVSTSAYSYMHWYQQKPGQPPKLLIYLASNLESGVPARFSGSGSGTDFTLNIHPVEEEDAATYYCQHSRELPYTFGGGTKLEIK
B2: Ab16 (antibody, V domains shown)
VH: EVKLLESGGGLVQPGGSLKLSCAASGFDFSRYWMSWVRQAPGKGLEWIGEINPDSSTINYTPSLKDKFIISRDNAKNTLYLQMSKVRSEDTALYYCARPGFGNYIYAMDYWGQGTSVTVSS
VL: DIQMTQTTSSLSASLGDRVTINCRASQDISNFLNWYQQKPDGTVKLLIYYTSRLYLGVPSRFSGSGSGTDYSLTISNLEQEDIATYFCQQGNTLPPTFGGGTKLEIK
B3: Ab14 (antibody, V domains shown)
VH: EVKLVESGGGLVKPGGSLKLSCAASGFTFSSYGMSWVRQTPEKRLEWVATISGGGTNTYYPDSVEGRFTISRDNAKNFLYLQMSSLRSEDTALYYCARHYGSQTMDYWGQGTSVTVSS
VL: DIQMTQSPASLSASVGETVTITCRTSGNIHNYLTWYQQKQGKSPQLLVYNAKTLADGVPSRFSGSGSGTQFSLKINSLQPEDFGSYYCQHFWSIMWTFGGGTKLEIK
B4: Ab13 (antibody, V domains shown)
VH: DVQLQESGPDLVKPSQSLSLTCTVTGYSITSGYSWHWIRQFPGNKLEWMGYIHSSGSTNYNPSLKSRISINRDTSKNQFFLQLNSVTTEDTATYYCAGYDDYFEYWGQGTTLTVSS
VL: DIVMTQSQKFMSTSVGDRVSVTCKASQNVGFNVAWYQQKPGQSPKALIYSASYRYSGVPDRFTGSGSGTDFTLTISNVQSEDLAEYFCQQYNSYPFTFGSGTKLEIK
B5: Ab10 (antibody, V domains shown)
VH: DVQLQESGPGLVKPSQSLSLTCTVTGYSITSDYAWNWIRQFPGNRLEWMGHINYSGITNYNPSLKSRISITRDTSKNQFFLQLYSVTTEDTATYFCARRSLFYYYGSSLYAMDYWGQGTSVTVSS
VL: DVVMTQSPFSLPVSLGDQASISCRSSQSLVHSNGNTYLHWYLQKPGQSPKLLIYKVSNRFSGVPDRFSGSGSGTDFTLKISRVEAEDLGVYFCSQSTHVPWTFGGGTKLEIK
B6: Ab2 (antibody, V domains shown)
VH: QVQLQQPGAELVKPGASVKLSCKASGYTFTSYWMHWVKQRPGQGLEWIGMIHPDSGTTNYNEKFRSKATLTVDKSSSTAYMQLSSLTSEDSAVYYCAVYYGSTYWYFDVWGTGTTVTVSS
VL: B5 VL with S7T, F9L, S20Y, S32I, L42R, V99F, W101F, G105S
B7: huAb18v1-CZ (conjugate)
VH: EVQLVQSGAEVKKPGSSVKVSCKASGYSFTSYTIHWVRQAPGQGLEWMGYINPNSRNTDYNQKFKDRVTITADKSTSTAYMELSSLRSEDTAVYYCARYSGSTPYWYFDVWGQGTTVTVSS
VL: DIQLTQSPSFLSASVGDRVTITCRASSSVSYMNWYQQKPGKAPKLLIYATSNLASGVPSRFSGSGSGTEFTLTISSLQPEDFATYYCQQWSSNPLTFGQGTKLEIK
B8: huAb18v10-CZ (conjugate)
VH: B7 VH with N61A, K65Q, D66G, I70L
VL: B7 VL with L45P, L46W, G63V, F70H
B9: huAb18v4-CZ (conjugate)
VH: B7 VH with N61A, K65Q, D66G, I70L
VL: B7 VL with A42S, L45P, L46W, G63V, G65V, F70H
B10: huAb18v8-CZ (conjugate)
VH: B7 VH with M48I, V68T, I70L, K74R
VL: B7 VL with L45P, L46W, G63V, F70H
B11: huAb18v2-CZ (conjugate)
VH: B7 VH with N61A, K65Q, D66G, I70L
VL: B7 VL
B12: huAb18v5-CZ (conjugate)
VH: B7 VH
VL: EIVLTQSPDFQSVTPKEKVTITCRASSSVSYMNWYQQKPDQSPKLLIKATSNLASGVPSRFSGSGSGTDFTLTINSLEAEDAATYYCQQWSSNPLTFGQGTKLEIK
B13: huAb18v3-CZ (conjugate)
VH: B7 VH with M48I, V68T, I70L, K74R
VL: B7 VL with A42S, L45P, L46W, G63V, G65V, F70H
B14: huAb3v3-CZ (conjugate)
VH: EVQLVQSGAEVKKPGSSVKVSCKASGYTFSSYWMHWVRQAPGQGLEWIGLIHPDSGSTNYNEMFKNRATLTVDRSTSTAYVELSSLRSEDTAVYFCAGGGRLYFDYWGQGTTVTVSS
VL: DVVMTQSPLSLPVTPGEPASISCRSSQSLVHSNGDTYLRWYLQKPGQSPQLLIYKVSNRFSGVPDRFSGSGSGTDFTLKISRVEAEDVGVYFCSQSTHVPYTFGGGTKVEIK
B15: huAb3v5-CZ (conjugate)
VH: B14 VH with V81M, F95Y
VL: B14 VL with F92Y
B16: huAb3v1-CZ (conjugate)
VH: B14 VH with I48M, A68V, L70I, V72A, R74K, V81M, F95Y, G98R
VL: B14 VL with V2I, F92Y

Target: T1, soluble ECD of human B7-H3
Experiment: Biacore T200 SPR binding kinetics, mAb capture
Conditions: Biacore T200, Fc capture of mAb, B7-H3 ECD as analyte, 1:1 binding model
Procedure: The binding affinity of the purified anti-B7-H3 monoclonal antibodies was determined by surface […]. […] The binding kinetics were derived from SPR measurements using a Biacore T200 instrument and a mAb capture approach (as described in the materials and methods below).
Biacore T200 SPR instruments were used to measure the binding kinetics of human B7-H3 (analyte) binding to various mAbs (ligands). The assay format was Fc-based capture via immobilized anti-mouse (Fc) (Pierce 31170) or immobilized anti-human (Fc) (Pierce 31125). A standard amine coupling protocol was employed to immobilize the capture reagents via primary amines to the carboxy-methyl (CM) dextran surface of CM5 sensorchips (Biacore); capture antibodies were coupled to a level of approximately 5000 RU. For binding kinetic measurements the assay buffer was HBS-EP+ (Biacore): 10 mM Hepes, pH7.4, 150 mM NaCl, 3 mM EDTA, 0.05% polysorbate 20. During the assay, all measurements were referenced against the capture surface alone. Each assay cycle consisted of the following steps: 1) Capture of ligand to approximately 50 RU; 2) Analyte injection over both reference and test surface, 240 μL at 80 μL/min, after which the dissociation was monitored for 900 seconds at 80 μL/min; 3) Regeneration of capture surface with low pH glycine. For kinetic determinations analyte injections were 3-point, 9-fold dilution series of 900 nM, 100 nM and 11.11 nM, buffer only injections were included for secondary referencing. Data were processed and fit to a 1:1 binding model using Biacore T200 Evaluation Software to determine the binding kinetic rate constants, ka (on-rate) and kd (off-rate), and the equilibrium dissociation constant (affinity, KD).

Molecule	huB7-H3 ka [M⁻¹ s⁻¹]	huB7-H3 kd [s⁻¹]
B1	540000	1.9e-05
B2	140000	0.0032
B3	110000	0.0014
B4	330000	0.0058
B5	41000	0.00019
B6	120000	0.0029

Tested on: not listed separately
Experiment: Aggregation of conjugates by SEC
Format: physicochemical
Conditions: Table 10; CZ conjugates of Ab18 variants

Molecule	% agg by SEC [%]
B7	3.3
B8	3.2
B9	5.5
B10	3.5
B11	3.3
B12	4.2
B13	3.6

Same assay, conditions: Table 14; CZ conjugates of Ab3 variants

Molecule	% agg by SEC [%]
B14	2.5
B15	5.9
B16	3.3

Tested on: HCC38 cell line
Experiment: Cell cytotoxicity of ADCs in HCC38 cell line
Format: cell-based
Conditions: Table 10; CZ conjugates
Procedure: The humanization of chAb18 generated 10 variants (described above in Table 9) that retained binding to human and cyno B7-H3 as assessed by FACS (the method of which is described above in Example 6). These variants were further characterized for binding by SPR and were successfully conjugated to the Bcl-xL inhibitor synthon CZ using Method A (described above) and assessed for cell cytotoxicity as described in Example 7. The parental chAb18 from which the variants were derived was also tested as a comparator. All humanized variants had similar binding properties as assessed by biacore, and retained binding activity to cell surface expressed as conjugates with the CZ synthon. The cytotoxicity of all of the variants as CZ synthons were similar to the chAb18 from which they were derived.
Humanized chAb18 variants were conjugated to the CZ synthon and tested for cytotoxicity in HCC38 cell line.

Molecule	IC50 [nM]
B7	0.39
B9	0.29
B10	1.3
B12	0.12
B13	0.32

Same assay, conditions: Table 14; CZ conjugates

Molecule	IC50 [nM]
B14	9.22
B15	0.17
B16	0.53

Tested on: NCI-H146 cells
Experiment: In vivo xenograft model of small cell lung cancer (NCI-H146)
Parameters: species or system mice
Conditions: Table 11; 6 mg/kg/IP/QDx1

Molecule	TGD (%)	TGImax (%)
B7	45	79
B9	48	85
B13	39	81

Tested on: soluble ECD of cyno B7-H3
Sequence (as listed by the source): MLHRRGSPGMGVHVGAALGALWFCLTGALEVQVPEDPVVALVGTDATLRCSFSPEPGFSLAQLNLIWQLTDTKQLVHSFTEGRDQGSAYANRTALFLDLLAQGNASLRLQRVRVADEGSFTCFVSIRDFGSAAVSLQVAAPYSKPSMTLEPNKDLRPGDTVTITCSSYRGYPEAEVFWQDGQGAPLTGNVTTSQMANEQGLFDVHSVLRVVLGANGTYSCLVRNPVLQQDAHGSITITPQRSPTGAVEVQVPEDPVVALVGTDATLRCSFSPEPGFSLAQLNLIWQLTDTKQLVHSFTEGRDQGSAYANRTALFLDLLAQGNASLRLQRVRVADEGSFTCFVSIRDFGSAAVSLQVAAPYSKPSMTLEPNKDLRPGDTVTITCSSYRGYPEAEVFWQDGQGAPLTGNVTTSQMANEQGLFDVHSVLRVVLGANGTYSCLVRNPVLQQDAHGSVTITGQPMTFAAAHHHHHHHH
Experiment: Biacore T200 SPR binding kinetics, mAb capture
Parameters: species or system cynomolgus monkey
Conditions: Biacore T200, Fc capture of mAb, B7-H3 ECD as analyte, 1:1 binding model

Molecule	cynoB7-H3 ka [M⁻¹ s⁻¹]	cynoB7-H3 kd [s⁻¹]
B1	510000	1e-05
B2	750000	0.0056
B3	690000	0.003
B4	440000	0.0037
B5	200000	0.0042
B6	230000	0.011
